Consider one molecule from patent US20260069676A1 (University of California, published 2026).

This test concerns the target T1, MHC I (H2Kb) on dendritic cells (;mouse, UniProt P01887 21-119; P01901 22-369).
T1 construct: whole, on cells; also called MHC I molecules of DC2.4 cells
T1 sequence (MHC heavy): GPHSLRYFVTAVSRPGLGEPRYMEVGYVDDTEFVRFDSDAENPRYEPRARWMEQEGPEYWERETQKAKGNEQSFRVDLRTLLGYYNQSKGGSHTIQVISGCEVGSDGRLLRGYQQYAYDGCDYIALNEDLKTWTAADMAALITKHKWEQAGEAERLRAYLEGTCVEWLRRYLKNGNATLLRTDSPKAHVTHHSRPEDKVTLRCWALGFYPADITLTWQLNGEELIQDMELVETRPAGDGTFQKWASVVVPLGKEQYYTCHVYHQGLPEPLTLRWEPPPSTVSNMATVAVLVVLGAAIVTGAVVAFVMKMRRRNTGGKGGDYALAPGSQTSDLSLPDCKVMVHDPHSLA
T1 sequence (b2m): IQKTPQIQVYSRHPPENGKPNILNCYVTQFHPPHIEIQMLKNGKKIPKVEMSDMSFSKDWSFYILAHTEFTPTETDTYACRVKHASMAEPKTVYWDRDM
Kind of test: competition with pre-loaded SIINFEKL on dendritic cells, flow cytometry with SIINFEKL/H2Kb-specific antibody. On the technique in general: A flow cytometer gives signals particle by particle.

B1: LTDEMIAQY peptide (MHC I peptide, SARS-CoV-2 spike T cell epitope) (peptide)
peptide: LTDEMIAQY
notes: Synthetic peptide (Anaspec), derived from the SARS-CoV-2 spike protein; also called LTD peptide (MHC I); LTD-MHC I peptide
Take B1: the binding result is “binds”.
